Test results taken from article doi:10.1101/2022.12.21.520923 (bioRxiv, 2022).

B1: His-SUMO-tagged CHC22 terminal domain (domain or fragment)
chain: MAQILPVRFQEHFQLQNLGINPANIGFSTLTMESDKFICIREKVGEQAQVTIIDMSDPMAPIRRPISAESAIMNPASKVIALKAGKTLQIFNIEMKSKMKAHTMAEEVIFWKWVSVNTVALVTETAVYHWSMEGDSQPMKMFDRHTSLVGCQVIHYRTDEYQKWLLLVGISAQQNRVVGAMQLYSVDRKVSQPIEGHAAAFAEFKMEGNAKPATLFCFAVRNPTGGKLHIIEVGQPAAGNQPFVKKAVDVFFPPEAQNDFPVAMQIGAKHGVIYLITKYGYLHLYDLESGVCICMNRISADTIFVTAPHKPTSGIIGVNKKGQVLSVCVEEDNIVNYATNVLQNPDLGLRLAVRSNLAGAEKLF
B2: full-length GST-SNX5 (natural protein)
chain: MAAVPELLQQQEEDRSKLRSVSVDLNVDPSLQIDIPDALSERDKVKFTVHTKTTLPTFQSPEFSVTRQHEDFVWLHDTLIETTDYAGLIIPPAPTKPDFDGPREKMQKLGEGEGSMTKEEFAKMKQELEAEYLAVFKKTVSSHEVFLQRLSSHPVLSKDRNFHVFLEYDQDLSVRRKNTKEMFGGFFKSVVKSADEVLFTGVKEVDDFFEQEKNFLINYYNRIKDSCVKADKMTRSHKNVADDYIHTAACLHSLALEEPTVIKKYLLKVAELFEKLRKVEGRVSSDEDLKLTELLRYYMLNIEAAKDLLYRRTKALIDYENSNKALDKARLKSKDVKLAEAHQQECCQKFEQLSESAKEELINFKRKRVAAFRKNLIEMSELEIKHARNNVSLLQSCIDLFKNN

Columns and labels:
Assay in all cases: pull-down
full-length GST-p115 = target: T1, full-length GST-p115 (UniProt O60763 1-962)
T1 sequence: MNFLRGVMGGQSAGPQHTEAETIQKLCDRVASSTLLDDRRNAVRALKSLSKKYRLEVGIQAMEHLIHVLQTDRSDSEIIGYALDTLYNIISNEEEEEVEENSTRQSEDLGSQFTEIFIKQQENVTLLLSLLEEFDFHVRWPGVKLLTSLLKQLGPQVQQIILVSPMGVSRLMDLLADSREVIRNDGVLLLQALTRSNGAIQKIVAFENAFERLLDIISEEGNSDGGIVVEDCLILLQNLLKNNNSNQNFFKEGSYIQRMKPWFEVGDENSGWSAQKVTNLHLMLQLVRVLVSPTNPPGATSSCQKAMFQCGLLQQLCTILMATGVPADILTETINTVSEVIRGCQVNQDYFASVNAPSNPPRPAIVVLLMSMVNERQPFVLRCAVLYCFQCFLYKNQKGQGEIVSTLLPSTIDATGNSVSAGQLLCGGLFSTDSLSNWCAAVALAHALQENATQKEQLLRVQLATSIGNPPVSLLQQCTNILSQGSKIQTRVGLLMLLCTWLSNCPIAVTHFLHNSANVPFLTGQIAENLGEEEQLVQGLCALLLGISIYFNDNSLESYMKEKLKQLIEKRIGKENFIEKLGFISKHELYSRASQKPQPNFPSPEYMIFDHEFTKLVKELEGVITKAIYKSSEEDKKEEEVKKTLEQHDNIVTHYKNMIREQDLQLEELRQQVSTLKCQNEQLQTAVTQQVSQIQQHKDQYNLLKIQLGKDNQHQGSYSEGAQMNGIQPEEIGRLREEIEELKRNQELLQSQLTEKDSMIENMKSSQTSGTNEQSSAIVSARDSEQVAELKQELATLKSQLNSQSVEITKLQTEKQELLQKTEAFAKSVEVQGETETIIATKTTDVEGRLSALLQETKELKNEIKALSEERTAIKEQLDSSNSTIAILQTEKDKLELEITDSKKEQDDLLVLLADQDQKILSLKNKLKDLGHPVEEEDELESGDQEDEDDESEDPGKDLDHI

[1] = target: full-length His-tagged SNX1 (UniProt Q13596 1-522)
His-tagged CHC22 Hub = target: T2, His-tagged CHC22 Hub (human, UniProt P53675 1074-1640)
T2 sequence: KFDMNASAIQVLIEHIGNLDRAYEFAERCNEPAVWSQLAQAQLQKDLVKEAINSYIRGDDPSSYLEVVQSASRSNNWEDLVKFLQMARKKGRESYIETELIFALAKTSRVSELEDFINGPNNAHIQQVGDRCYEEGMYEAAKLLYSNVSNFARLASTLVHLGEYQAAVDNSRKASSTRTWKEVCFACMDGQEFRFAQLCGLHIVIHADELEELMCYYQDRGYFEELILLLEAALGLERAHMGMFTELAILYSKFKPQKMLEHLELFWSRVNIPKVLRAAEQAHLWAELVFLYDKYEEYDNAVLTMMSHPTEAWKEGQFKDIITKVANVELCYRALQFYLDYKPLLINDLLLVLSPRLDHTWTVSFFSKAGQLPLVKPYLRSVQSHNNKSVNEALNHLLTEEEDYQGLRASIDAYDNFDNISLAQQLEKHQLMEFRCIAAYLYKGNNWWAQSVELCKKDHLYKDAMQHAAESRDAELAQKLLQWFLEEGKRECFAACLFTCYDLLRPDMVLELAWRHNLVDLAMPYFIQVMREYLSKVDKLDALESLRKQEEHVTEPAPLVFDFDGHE

full-length His-p115 = target: T3, full-length His-p115 (UniProt O60763 1-962)
T3 sequence: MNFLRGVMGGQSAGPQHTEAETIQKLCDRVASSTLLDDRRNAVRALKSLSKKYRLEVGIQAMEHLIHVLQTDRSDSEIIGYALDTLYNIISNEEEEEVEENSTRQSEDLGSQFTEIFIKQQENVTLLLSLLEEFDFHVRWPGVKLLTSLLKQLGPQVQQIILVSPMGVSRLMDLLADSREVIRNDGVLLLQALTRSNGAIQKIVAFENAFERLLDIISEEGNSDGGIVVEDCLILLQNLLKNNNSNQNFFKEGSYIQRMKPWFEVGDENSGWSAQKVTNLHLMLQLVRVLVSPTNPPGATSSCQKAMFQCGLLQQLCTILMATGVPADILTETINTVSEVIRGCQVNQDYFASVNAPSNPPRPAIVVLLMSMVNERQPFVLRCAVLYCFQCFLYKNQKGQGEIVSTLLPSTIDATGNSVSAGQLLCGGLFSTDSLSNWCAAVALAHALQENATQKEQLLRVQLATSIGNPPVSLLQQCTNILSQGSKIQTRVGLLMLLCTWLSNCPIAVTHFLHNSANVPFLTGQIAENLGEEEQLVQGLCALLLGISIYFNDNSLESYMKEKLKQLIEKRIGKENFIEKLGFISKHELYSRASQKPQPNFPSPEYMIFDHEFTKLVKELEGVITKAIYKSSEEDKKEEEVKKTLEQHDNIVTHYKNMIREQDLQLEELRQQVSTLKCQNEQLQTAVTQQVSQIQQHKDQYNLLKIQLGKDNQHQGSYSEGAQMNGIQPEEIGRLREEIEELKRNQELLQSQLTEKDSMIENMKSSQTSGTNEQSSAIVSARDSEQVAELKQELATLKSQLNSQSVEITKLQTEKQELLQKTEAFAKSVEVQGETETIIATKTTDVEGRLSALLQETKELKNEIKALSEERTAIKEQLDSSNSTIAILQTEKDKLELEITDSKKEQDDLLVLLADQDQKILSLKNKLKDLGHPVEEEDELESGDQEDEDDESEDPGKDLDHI

[2] = target: T4, full-length GST-SNX5 phosphomimetic S226E mutant (human, UniProt Q9Y5X3 1-404, S226E)
T4 sequence: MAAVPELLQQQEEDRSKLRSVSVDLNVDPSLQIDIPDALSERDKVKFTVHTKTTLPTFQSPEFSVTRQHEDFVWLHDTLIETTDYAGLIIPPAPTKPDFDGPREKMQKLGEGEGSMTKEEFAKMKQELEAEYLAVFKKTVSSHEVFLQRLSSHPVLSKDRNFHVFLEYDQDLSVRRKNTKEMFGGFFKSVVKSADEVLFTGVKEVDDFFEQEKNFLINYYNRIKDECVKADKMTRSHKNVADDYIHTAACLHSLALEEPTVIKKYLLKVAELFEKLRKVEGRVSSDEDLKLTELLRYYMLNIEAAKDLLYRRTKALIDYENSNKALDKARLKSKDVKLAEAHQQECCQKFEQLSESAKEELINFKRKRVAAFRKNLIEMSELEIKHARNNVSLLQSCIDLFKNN

full-length GST-SNX5 = target: B2
[3] = target: T5, His-SUMO CHC17 terminal domain (human, UniProt Q00610 1-364)
T5 sequence: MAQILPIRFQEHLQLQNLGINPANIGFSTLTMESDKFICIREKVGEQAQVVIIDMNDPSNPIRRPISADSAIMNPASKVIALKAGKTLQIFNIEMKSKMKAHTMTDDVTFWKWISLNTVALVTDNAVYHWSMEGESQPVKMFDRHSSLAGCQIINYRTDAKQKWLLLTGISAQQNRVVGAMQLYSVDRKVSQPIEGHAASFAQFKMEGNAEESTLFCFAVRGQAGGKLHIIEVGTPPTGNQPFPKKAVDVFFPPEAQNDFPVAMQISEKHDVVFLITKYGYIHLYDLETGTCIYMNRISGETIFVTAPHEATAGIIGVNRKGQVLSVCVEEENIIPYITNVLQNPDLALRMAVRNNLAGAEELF

[4] = target: B1

Chain of full-length His-tagged SNX1 (Q13596 whole entry): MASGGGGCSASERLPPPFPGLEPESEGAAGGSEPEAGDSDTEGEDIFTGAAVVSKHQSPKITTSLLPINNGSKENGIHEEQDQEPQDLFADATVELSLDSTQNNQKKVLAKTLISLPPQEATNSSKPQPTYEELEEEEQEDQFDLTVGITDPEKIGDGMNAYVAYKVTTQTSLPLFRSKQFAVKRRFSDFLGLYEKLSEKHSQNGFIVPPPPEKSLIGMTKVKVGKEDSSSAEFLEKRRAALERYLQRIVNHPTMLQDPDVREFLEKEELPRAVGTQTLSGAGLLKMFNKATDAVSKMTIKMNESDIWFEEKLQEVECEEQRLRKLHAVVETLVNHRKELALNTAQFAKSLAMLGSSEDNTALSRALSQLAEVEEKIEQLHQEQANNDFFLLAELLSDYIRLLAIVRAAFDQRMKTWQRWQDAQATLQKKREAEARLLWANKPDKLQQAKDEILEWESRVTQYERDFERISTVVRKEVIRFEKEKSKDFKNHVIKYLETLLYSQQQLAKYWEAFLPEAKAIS

Q: Does B1 bind (full-length GST-p115)?
A: binds

Q: Does B2 bind [1]?
A: binds

Q: Does B2 bind (His-tagged CHC22 Hub)?
A: binds

Q: Does B2 bind (full-length His-p115)?
A: binds

B3: His-tagged CHC22 TxD (domain or fragment)
chain: WAQSVELCKKDHLYKDAMQHAAESRDAELAQKLLQWFLEEGKRECFAACLFTCYDLLRPDMVLELAWRHNLVDLAMPYFIQVMREYLSKVDKLDALESLRKQEEHVTEPAPLVFDFDGHE
Q: Which results are given for B3?
A: binding result [2]: binds; binding result (full-length GST-SNX5): binds

B4: GST-GGA2-HE (domain or fragment)
chain: GRVTFGNRVTSSLGDIPVSRVFQNPAGCMKTCPLIDLEVDNGPAQMGTVVPSLLHQDLAALGISDAPVTGMVSGQNCCEEKRNPSSSTLPGGGVQNPSADRNLLDLLSAQPAPCPLNYVSQKSVPKEVPPGTKSSPGWSWEAGPLAPSPSSQNTPLAQVFVPLESVKPSSLPPLIVYDRNGFRILLHFSQTGAPGHPEVQVLLLTMMSTAPQPVWDIMFQVAVPKSMRVKLQPASSSKLPAFSPLMPPAVISQMLLLDNPHKEPIRLRYKLTFNQGGQPFSEVGEVKDFPDLAVLGAA
Q: Does B4 bind [3]?
A: binds

Q: Does B4 bind [4]?
A: binds
